Measurements published in patent US20050118638A1 (RSR, published 2005).
Numbering of substitutions follows the chain as printed.

B1: 16E5 IgG (antibody, V domains shown, not shown: a dimerising Fc or GST)
VH: DVQLVQSGPELVKPGASVKMSCKASGYSFTGYNMHWVKQSHGKSLEWIGYIDPYNGATSYNQKFEDKATLTVDKSSSTAYMQLNSLTSEDSAVYYCARRWDWDPYAMDYWGQGTSVTVSS
VL: DILLTQSPAILSVSPGERVSFSCRASQSIGTSIHWYQQRTNGSPRLLIKYASESISGIFSRFSGSGSGTDFTLTINSVESEDIADYYCQQSNRWPLTFGAGTKLELKR
notes: mouse monoclonal IgG; also called MAb 16E5
B2: 17D2 IgG (antibody, V domains shown, not shown: a dimerising Fc or GST)
VH: B1 VH with L4I, V5Q, G31A, S40T, N55S, N61H, E65K, D66G, Q82R
VL: B1 VL with D1S, I2V, L3E, L4M, T5S, V19I, E53A, F59P, T74S, R93S
notes: mouse monoclonal IgG
B3: 4D7 IgG (antibody, V domains shown, not shown: a dimerising Fc or GST)
VH: DVQLKHSGPELVKPGASMKISCKASGYSFTGYTMNWVKQSHGKNLEWIGLINPYTGGTNYNQKFKGKAKLTVDKSSSTAFMELLSLTSEDSAVYYCARDGNLDYWGQGTTLTVSS
VL: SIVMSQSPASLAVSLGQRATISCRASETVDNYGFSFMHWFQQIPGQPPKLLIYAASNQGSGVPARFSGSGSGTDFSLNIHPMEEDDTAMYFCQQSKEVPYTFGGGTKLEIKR
notes: mouse monoclonal IgG; also called Mab 4D7
B4: 3B3 IgG (antibody, V domains shown)
VH: DVQLQQPGAELVKPGASVKLSCTTSGVNIKDTYMHWMKQRPEQGLEWIGRIDPANGNTKYDPKFRGKATITADTSSNTVYVQLRSLTSEDTAVYYCAYDGYWGQGTLVTVSA
VL: NIVMTQTPASLAVSLGQRATISCRASESVDSYGNNFMHWYQQKPGQSPRLLIYRASNLESGIPARFSGSGSRTDFTLTTNPVEADDVATYYCQQSHKDPLTFGAGTKLELK
B5: 2B4 IgG (antibody, V domains shown, not shown: a dimerising Fc or GST)
VH: DVQLQQSGTVLARPGASVRMSCKASGYSFTRYWIHWLKQRPGQGLEWIGAIFPGNRDTSYNQRFKGKAEVTAVTSASTAYLDLSSLTNEDSAVYYCTRWPYYGSIYVNFDYWGQGTTLTVSS
VL: DIVMTQSPLSLPVSLGDQASISCRTSQNLVHRNGNTYLHWYLQKPGQSPKLLIYKISNRFSGVPDRFSGSGSGTDFTLKISRVEAEDLGVYFCSQGTHVPPTFGGGTKLEIKR
notes: mouse monoclonal IgG; also called 2B4 MAb
B6: 16E5 Fab (Fab, V domains shown)
VH: B1 VH
VL: B1 VL
notes: papain Fab of the mouse MAb
B7: 14D3 Fab (Fab, V domains shown)
VH: B1 VH with L4M, V5Q, S7P, V18L, N55S, D66G
VL: B1 VL with D1N, L4M, S22A, F59P, T74S, S91T
notes: Fab of the mouse MAb
B8: 17D2 Fab (Fab, V domains shown)
VH: B1 VH with L4I, V5Q, G31A, S40T, N55S, N61H, E65K, D66G, Q82R
VL: B1 VL with D1S, I2V, L3E, L4M, T5S, V19I, E53A, F59P, T74S, R93S
notes: Fab of the mouse MAb
B9: 3B3 Fab (Fab, V domains shown)
VH: B4 VH
VL: NIVMTQTPASLAVSLGQRATISCRASESVDSYGNNFMHWYQQKPGQSPRLLIYRASNLESGIPARFSGSGSRTDFTLTTNPVEADDVATYYCQQSHKDPLTFGAGTKLELKR
B10: 14D3 IgG (antibody, V domains shown, not shown: a dimerising Fc or GST)
VH: B1 VH with L4M, V5Q, S7P, V18L, N55S, D66G
VL: B1 VL with D1N, L4M, S22A, F59P, T74S, S91T
notes: mouse monoclonal IgG; also called MAb 14D3
B11: 3C7 IgG (antibody, V domains shown, not shown: a dimerising Fc or GST)
VH: B3 VH with E46D, T55N, N59S, N61D, K69T, F80Y, N101L, L102M, T110S, L111V
VL: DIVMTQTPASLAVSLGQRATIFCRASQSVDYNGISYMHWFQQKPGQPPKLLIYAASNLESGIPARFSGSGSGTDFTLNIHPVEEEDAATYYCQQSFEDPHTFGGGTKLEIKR
notes: mouse monoclonal IgG

Target: TSH receptor of isolated porcine thyroid cells (porcine, UniProt Q8SPP9 22-764)
Assay: cell-based or functional assay

Chain of TSH receptor of isolated porcine thyroid cells (Q8SPP9 22-764): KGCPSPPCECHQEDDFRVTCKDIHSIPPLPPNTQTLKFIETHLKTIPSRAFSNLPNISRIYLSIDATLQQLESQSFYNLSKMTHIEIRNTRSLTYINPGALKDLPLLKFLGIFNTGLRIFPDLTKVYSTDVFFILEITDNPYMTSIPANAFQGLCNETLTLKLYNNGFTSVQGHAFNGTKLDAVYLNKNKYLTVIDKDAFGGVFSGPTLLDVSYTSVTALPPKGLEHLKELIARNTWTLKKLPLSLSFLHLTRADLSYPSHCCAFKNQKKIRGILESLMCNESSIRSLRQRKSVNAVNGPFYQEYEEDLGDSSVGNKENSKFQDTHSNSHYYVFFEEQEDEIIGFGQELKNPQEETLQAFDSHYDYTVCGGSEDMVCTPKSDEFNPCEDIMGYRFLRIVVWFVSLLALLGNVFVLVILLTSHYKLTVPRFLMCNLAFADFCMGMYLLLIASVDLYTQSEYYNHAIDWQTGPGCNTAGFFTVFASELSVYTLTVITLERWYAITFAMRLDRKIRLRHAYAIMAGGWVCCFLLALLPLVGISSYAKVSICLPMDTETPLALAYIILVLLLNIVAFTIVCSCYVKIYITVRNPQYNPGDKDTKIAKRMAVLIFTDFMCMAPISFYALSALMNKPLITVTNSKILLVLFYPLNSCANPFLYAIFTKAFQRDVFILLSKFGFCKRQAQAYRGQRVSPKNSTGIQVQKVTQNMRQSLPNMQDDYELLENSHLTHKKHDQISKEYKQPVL

Binder | Stimulation (%) of cyclic AMP, isolated porcine thyroid cells; 2 µg/ml | Stimulation (%) of cyclic AMP, isolated porcine thyroid cells; 20 µg/ml | Stimulation (%) of cyclic AMP, isolated porcine thyroid cells; 200 µg/ml
B1 | 269% | 332% | 466%
B2 | 134% | 207% | 377%
B3 | – | 31% | 259%
B4 | – | 37% | 34%
B5 | 116% | 100% | –
B6 | – | – | 425%
B7 | – | – | 648%
B8 | – | – | 274%
B9 | – | – | 42%
B10 | 323% | 351% | 557%

Target: human TSHR expressed on Chinese hamster ovary (CHO) cells (human, UniProt P16473 21-764)
Assay: cell-based or functional assay

Chain of human TSHR expressed on Chinese hamster ovary (CHO) cells (P16473 21-764): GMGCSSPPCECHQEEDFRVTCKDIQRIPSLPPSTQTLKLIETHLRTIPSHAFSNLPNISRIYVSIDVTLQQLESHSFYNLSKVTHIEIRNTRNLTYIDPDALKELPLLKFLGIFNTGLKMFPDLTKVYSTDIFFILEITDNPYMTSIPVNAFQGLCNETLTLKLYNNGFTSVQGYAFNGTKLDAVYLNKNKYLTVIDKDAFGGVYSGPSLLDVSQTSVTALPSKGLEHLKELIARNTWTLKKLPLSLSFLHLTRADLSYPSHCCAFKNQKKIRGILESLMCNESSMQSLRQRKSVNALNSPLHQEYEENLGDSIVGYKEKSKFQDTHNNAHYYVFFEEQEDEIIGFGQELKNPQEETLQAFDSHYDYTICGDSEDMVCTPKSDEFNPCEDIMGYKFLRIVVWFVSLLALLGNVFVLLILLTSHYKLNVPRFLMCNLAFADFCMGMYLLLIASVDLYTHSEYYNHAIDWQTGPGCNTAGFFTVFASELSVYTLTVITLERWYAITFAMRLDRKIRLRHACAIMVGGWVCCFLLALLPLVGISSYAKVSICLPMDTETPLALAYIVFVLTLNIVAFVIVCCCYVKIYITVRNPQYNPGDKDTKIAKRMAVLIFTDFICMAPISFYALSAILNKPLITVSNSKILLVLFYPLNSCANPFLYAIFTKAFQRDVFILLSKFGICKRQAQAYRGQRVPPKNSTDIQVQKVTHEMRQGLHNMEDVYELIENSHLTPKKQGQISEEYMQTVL

Binder | Stimulation (%) of cyclic AMP, CHO cells expressing human TSHR; 20 µg/ml, diluted 1:10
B1 | 850%
B5 | 111%
B10 | 908%

Target: T1, TSH receptor (detergent solubilised TSH receptor preparation) (UniProt P16473 21-764, limits assumed)
T1 construct: In some assays captured or labelled through MAb 4E31 F(ab)2; also called thyrotrophin receptor
Assay: 125I-TSH, TSHR coated tubes; 2 µg/ml
Experimental: (§1) In particular the MAb 4E31 reactive with the TSHR C terminus (10 μg/mL F(ab)₂ preparation in 0.1 M Na₂CO₃ pH 9.2) was added to plastic tubes (Nune Maxisorp, 200 μL per tube) and coating allowed to proceed overnight 4° C. After washing and post-coating (10 mg/mL bovine serum albumin) the tubes were washed again with assay buffer (10 mM Tris-HCl pH 7.8, 50 mM NaCl, 1 mg/mL bovine serum albumin, 0.1% Triton X-100). 200 μL of a detergent solubilised TSHR preparation was then added and incubated overnight at 4° C. followed by aspiration and washing steps. Thereafter, 20 μL of “start” buffer (10 mM Tris-HCl pH 7.8, 50 mM NaCl, bovine serum albumin 1 mg/mL, 6 mM NaN₃, 1% Triton X-100) was added to the TSHR coated tubes followed by 100 μL of purified MAb IgG or patient sera and incubated at room temperature for 2 hours with gentle shaking. […] The tubes were then washed twice with 1 mL of assay buffer, aspirated and counted in a gamma counter.

T1 sequence (P16473 21-764 limits assumed): as the sequence (P16473 21-764) above

Binder | % inhibition of TSH binding
B1 | 73.6%
B2 | 73.7%
B5 | 69.9%
B10 | 61%

Target: T1, TSH receptor (detergent solubilised TSH …)
Assay: 125I-TSH, TSHR coated tubes; 20 µg/ml
Experimental: as §1

Binder | % inhibition of TSH binding
B1 | 83.3%
B2 | 81.3%
B10 | 76.4%

Target: T1, TSH receptor (detergent solubilised TSH …)
Assay: 125I-TSH, TSHR coated tubes; tested at 10 µg/ml
Experimental: as §1

Binder | % inhibition of TSH binding
B6 | 53%
B7 | 64%
B8 | 45%

Target: T1, TSH receptor (detergent solubilised TSH …)
Assay: solubilised TSHR, PEG method; IgG 100 µg/ml; competitor 125I-16E5 Fab

Binder | % inhibition of 125I-16E5 Fab binding
B1 | 70.4%
B2 | 69.2%
B3 | 24.2%
B10 | 67.6%
B11 | 17%
